According to patent publication US20240197834A1 (HANMI PHARM, published 2024):
Square brackets hold non-standard residues; d marks the D form. Ends that are not written are not given here. Aib = CC(C)(N)C(=O)O

target: glucagon receptor; assay: cell-based or functional assay

Binder | In vitro activity (Relative Activity to SEQ ID NO: 1, %) [%]
HSQGTFTSDYSKYLDSCEADDFVQWLMNT [glucagon derivative of SEQ ID NO: 6] | < 0.1
HSQGTFTSDYSKYLDCERAQDFVQWLMNT [glucagon derivative of SEQ ID NO: 3] | 6.1
Y[Aib]QGTFCSDYSKYLDSRRAQDFVQWLMNT [glucagon derivative of SEQ ID NO: 42] | 37.9
Y[Aib]QGTFTSDYSKYLDSCDADDFVVWLINT [glucagon derivative of SEQ ID NO: 10] | < 0.1
HSQGTFTSDYSKYLDCDRAQDFVQWLMNT [glucagon derivative of SEQ ID NO: 2] | 0.6
Y[Aib]QGTFTSDYSKYLDCRRAQVFVQWLMRT [glucagon derivative of SEQ ID NO: 16] | 4.2
HSQGTFTSDYSKYLDSCEAQDFVQWLMNT [glucagon derivative of SEQ ID NO: 5] | 0.3
Y[Aib]QGTFTSDYSCYLDEKRAKEFVQWLMNT [glucagon derivative of SEQ ID NO: 45] | 5.2
HSQGTFTSDYSKYLDSCDAQDFVQWLMNT [glucagon derivative of SEQ ID NO: 4] | < 0.1
YSQGTFTSDYSKYLDSCEADDFVQWLMNT [glucagon derivative of SEQ ID NO: 7] | < 0.1
Y[Aib]QGTFTSDYSCYLDSRRAQDFVQWLMNT [glucagon derivative of SEQ ID NO: 13] | 5.2
Y[Aib]QGTFTSDYSKYLDCKRAKEFVQWLMNT [glucagon derivative of SEQ ID NO: 14] | 18.1

Results, then the binder that gave them:

In vitro activity (Relative Activity to SEQ ID NO: 1, %) [%] | Binder
< 0.1 | Y[Aib]QGTFTSDYSKYLDSRRACDFRLWLMNT [glucagon derivative of SEQ ID NO: 18]
1.1 | Y[Aib]QGTFTSDYSKYLCEKRAQDFVVWLMNT [glucagon derivative of SEQ ID NO: 15]
1.6 | Y[Aib]QGTFTSDCSKYLDSRRAQDFVQWLMNT [glucagon derivative of SEQ ID NO: 43]
108 | YXQGTFTSDYSKYLDSRRAQDFVQWLMNT (aminoisobutyric acid (Aib) at position 2 (printed X)) [glucagon derivative of SEQ ID NO: 33]
4.6 | Y[Aib]QGTFTSDYSKYLDEKCAKEFVQWLMNT [glucagon derivative of SEQ ID NO: 11]
23.2 | Y[Aib]QGTFTSDYSKYLDCVRAQDFVQWLMRT [glucagon derivative of SEQ ID NO: 17]
75.4 | YXQGTFTSDYSKYLDSRRAQDFVQWLMNTC (aminoisobutyric acid (Aib) at position 2 (printed X)) [glucagon derivative of SEQ ID NO: 44]
